Measured values taken from article PMC4333382, “RNA helicase A activity is inhibited by oncogenic transcription factor EWS-FLI1” (Nucleic Acids Research, 2015).

Experiments:
[1] = target: T1, EWS-FLI1 (UniProt F1JVV7); assay: competition; 30 nM EWS-FLI1, competes with 32P HDV RNA (N1?); EMSA: 25 mM HEPES pH 7.4, 80 mM NaCl, 2 mM MgCl2, 2 mM DTT, Superase In, 5 pmol 32P-RNA, 10 min room temperature, 6% native PAGE 0.5x TBE; AFM: 25 mM HEPES pH 7.4, 2 mM MgCl2, 1 mM TCEP, 25 C, 1 min; settings: protein: recombinant; blunt
T1 chain: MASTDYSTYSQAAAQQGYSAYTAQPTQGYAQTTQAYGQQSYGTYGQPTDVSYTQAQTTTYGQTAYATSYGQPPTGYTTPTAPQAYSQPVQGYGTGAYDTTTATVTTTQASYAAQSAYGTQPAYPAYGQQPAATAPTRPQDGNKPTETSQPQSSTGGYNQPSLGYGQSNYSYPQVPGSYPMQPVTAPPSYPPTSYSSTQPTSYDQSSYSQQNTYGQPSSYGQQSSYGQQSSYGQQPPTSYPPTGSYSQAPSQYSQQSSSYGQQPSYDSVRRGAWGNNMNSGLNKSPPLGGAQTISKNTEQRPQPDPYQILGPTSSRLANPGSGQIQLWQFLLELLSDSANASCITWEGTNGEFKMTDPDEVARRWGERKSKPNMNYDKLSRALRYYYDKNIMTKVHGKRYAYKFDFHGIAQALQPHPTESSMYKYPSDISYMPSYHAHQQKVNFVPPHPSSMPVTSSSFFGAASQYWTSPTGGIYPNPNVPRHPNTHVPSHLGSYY

[2] = target: T1, EWS-FLI1; assay: as above; settings: protein: recombinant; blunt

B1: mut ets-DNA (GGAA to GCTA) (dsDNA)
DNA 1: ATGTAGACCGCTAGTAACTA
DNA 2: TAGTTACTAGCGGTCTACAT
- binding signal [1]: 30 % of wild-type efficiency at displacing RNA

B2: wt ets-DNA (dsDNA)
DNA 1: ATGTAGACCGGAAGTAACTA
DNA 2: TAGTTACTTCCGGTCTACAT
- binding result [2]: binds
